Values joined by “and” are separate entries in the source; they are usually repeats but may differ in a detail not shown here. Equal values may be shown once. Read-outs that look alike come from different tables or passages of the source.
Key:
Assay in all cases: SPR
[1] = target: his-tagged knob domain protein of HAdV-B7 fiber (Human adenovirus B7)
[2] = target: ALCAM protein, commercially available (Sino, Cat. No. 10045-H08H-100) (human) (UniProt Q13740)
[3] = target: his-tagged knob domain protein of HAdV-B7 fiber (Human adenovirus B7); remark: listed apart in the source

Molecule | Kd [1] | Kd [2] | Kd [3]
DSG-2 protein (MCE, Cat. No. HY-P77917) (from UniProt Q14126 50-609) (receptor) | 2610 nM | – | –
his-tagged knob domain protein of HAdV-B7 fiber (domain or fragment) | 3470 nM | 700 nM and 849 nM | –
ALCAM protein, commercially available (Sino, Cat. No. 10045-H08H-100) (receptor) WYTVNSAYGDTIIIPCRLDVPQNLMFGKWKYEKPDGSPVFIAFRSSTKKSVQYDDVPEYKDRLNLSENYTLSISNARISDEKRFVCMLVTEDNVFEAPTIVKVFKQPSKPEIVSKALFLETEQLKKLGDCISEDSYPDGNITWYRNGKVLHPLEGAVVIIFKKEMDPVTQLYTMTSTLEYKTTKADIQMPFTCSVTYYGPSGQKTIHSEQAVFDIYYPTEQVTIQVLPPKNAIKEGDNITLKCLGNGNPPPEEFLFYLPGQPEGIRSSNTYTLTDVRRNATGDYKCSLIDKKSMIASTAITVHYLDLSLNPSGEVTRQIGDALPVSCTISASRNATVVWMKDNIRLRSSPSFSSLHYQDAGNYVCETALQEVEGLKKRESLTLIVEGKPQIKMTKKTDPSGLSKTIICHVEGFPKPAIQWTITGSGSVINQTEESPYINGRYYSKIIISPEENVTLTCTAENQLERTVNSLNVSAISIPEHDEADEISDENREKVNDQAK | – | – | 961 nM

— publication PMC11686370
